In patent US20120251580A1:

Assays:
[1] = molecular target: purified recombinant galectin-3 (gal3) (UniProt P17931); test: solid phase assay, inhibition of gal3 binding to asialofetuin
[2] = molecular target: purified recombinant galectin-3 (gal3) (UniProt P17931); test: SPR (Biacore T200), biotinylated gal3 captured on SA chip, TFD100 0.312-10 nM, 1:1 binding model
[3] = molecular target: purified recombinant galectin-3 (gal3) (UniProt P17931); test: cell-based or functional assay
[4] = molecular target: prostate cancer patient serum-associated gal3 (human) (UniProt P17931); test: cell-based or functional assay
Chain of prostate cancer patient serum-associated gal3 (human) (P17931 2-250 limits assumed): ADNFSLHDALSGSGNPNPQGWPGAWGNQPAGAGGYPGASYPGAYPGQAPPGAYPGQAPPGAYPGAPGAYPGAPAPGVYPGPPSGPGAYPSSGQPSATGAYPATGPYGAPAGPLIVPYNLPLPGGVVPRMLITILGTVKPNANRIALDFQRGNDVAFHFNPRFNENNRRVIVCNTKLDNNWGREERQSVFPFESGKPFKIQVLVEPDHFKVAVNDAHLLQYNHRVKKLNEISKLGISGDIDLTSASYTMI

[5] = molecular target: gal3 on the surface of human PC3 and HUVEC cells (human) (UniProt P17931); test: cell-based or functional assay
Chain of gal3 on the surface of human PC3 and HUVEC cells (human) (P17931 2-250): as the sequence (P17931 2-250 limits assumed) above

[6] = molecular target: gal3 on the surface of B16 melanoma cells (murine) (UniProt P16110); test: cell-based or functional assay
Chain of gal3 on the surface of B16 melanoma cells (murine) (P16110 2-264): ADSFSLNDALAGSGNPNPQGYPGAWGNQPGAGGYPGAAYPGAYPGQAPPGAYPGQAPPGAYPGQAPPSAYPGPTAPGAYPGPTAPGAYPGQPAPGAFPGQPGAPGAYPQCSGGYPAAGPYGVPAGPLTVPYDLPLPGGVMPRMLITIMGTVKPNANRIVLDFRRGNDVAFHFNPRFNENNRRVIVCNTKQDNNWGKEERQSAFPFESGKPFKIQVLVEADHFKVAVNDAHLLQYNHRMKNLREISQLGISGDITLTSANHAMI

[7] = molecular target: N-terminal of gal9 (gal9N); test: solid phase assay, inhibition of gal9N binding to asialofetuin
[8] = molecular target: N-terminal of gal9 (gal9N); test: solid phase assay, inhibition of gal9N binding to plate-bound asialofetuin (competitor), anti-galectin antibody detection
[9] = molecular target: purified recombinant galectin-3 (gal3) (UniProt P17931); test: solid phase assay, inhibition of gal3 binding to plate-bound asialofetuin (competitor)
gal4 [10] = test: solid phase assay, inhibition of gal4 binding to asialofetuin
[11] = molecular target: purified recombinant galectin-3 (gal3) (UniProt P17931); test: SPR (Biacore T200), biotinylated gal3 captured on SA chip, 1:1 binding model
[12] = molecular target: purified recombinant galectin-3 (gal3) (UniProt P17931); test: SPR (Biacore T200), derived from the dissociation rate
gal4 [13] = test: solid phase assay, inhibition of gal4 binding to plate-bound asialofetuin (competitor), anti-galectin antibody detection
[14] = molecular target: purified recombinant galectin-3 (gal3) (UniProt P17931); test: solid phase assay, inhibition of gal3 binding to asialofetuin, molar basis
[15] = molecular target: gal3 on the surface of human PC3 and HUVEC cells (human) (UniProt P17931); test: flow cytometry on PC3 cells (unstained cells 205), control
[16] = molecular target: gal3 on the surface of human PC3 and HUVEC cells (human) (UniProt P17931); test: flow cytometry on HUVEC cells (unstained cells 97), control
[17] = molecular target: gal3 on the surface of B16 melanoma cells (murine) (UniProt P16110); test: flow cytometry on B16 melanoma cells (unstained cells 214), control

Chain of purified recombinant galectin-3 (gal3) (P17931 whole entry, the tested form may be a part): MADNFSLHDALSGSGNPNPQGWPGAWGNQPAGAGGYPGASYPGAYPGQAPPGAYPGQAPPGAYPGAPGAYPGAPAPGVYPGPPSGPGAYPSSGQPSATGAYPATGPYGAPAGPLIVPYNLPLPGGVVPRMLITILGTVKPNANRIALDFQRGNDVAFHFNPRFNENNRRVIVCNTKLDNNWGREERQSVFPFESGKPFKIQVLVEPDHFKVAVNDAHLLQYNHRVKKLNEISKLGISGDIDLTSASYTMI

Crude extract (crude anti-freeze glycoproteins of cod, A/F Protein)
IC50 [1]: 108 µg/mL | RIA (relative inhibitory activity compared to lactose taken as 1) (relative to lactose = 1) [1]: 0.25

Fraction 1 (>50 kDa) of cod anti-freeze glycoproteins
IC50 [1]: 2.5 µg/mL | RIA (relative inhibitory activity compared to lactose taken as 1) (relative to lactose = 1) [1]: 10.5

Fraction 2 (<50 kDa, >30 kDa) of cod anti-freeze glycoproteins
IC50 [1]: 27 µg/mL | RIA (relative inhibitory activity compared to lactose taken as 1) (relative to lactose = 1) [1]: 1

Fraction 3 (<30 kDa, >10 kDa) of cod anti-freeze glycoproteins
IC50 [1]: 82 µg/mL | RIA (relative inhibitory activity compared to lactose taken as 1) (relative to lactose = 1) [1]: 0.33

Fraction 4 (<10 kDa, >3 kDa) of cod anti-freeze glycoproteins
IC50 [1]: 300 µg/mL | RIA (relative inhibitory activity compared to lactose taken as 1) (relative to lactose = 1) [1]: 0.09

Fraction 5 (<3 kDa) of cod anti-freeze glycoproteins
RIA (relative inhibitory activity compared to lactose taken as 1) (relative to lactose = 1) [1]: < 0.06

O-glycosidase treated TFD100
% inhibition at 6.2 nM [1]: 45%

TFD100 (Thomsen-Friedenreich disaccharide-containing glycopeptide of approximately 100 kDa purified from Pacific cod, Gadus macrocephalus)
Kd [2]: 0.0968 nM | apoptosis of activated pmel CD8+ T cells with 5 µM recombinant gal3 plus 3.5 nM TFD100 (˜76% with gal3 alone, ˜61% CD8 alone) [3]: 72 % apoptosis | inhibition of gal3 (5 µM)-induced apoptosis of MOLT-4 cells by 3.5 nM TFD100 (annexin V binding) [3]: 34% | inhibition of gal3 (5 µM)-induced apoptosis of human CD8+ T cells by 3.5 nM TFD100 [3]: 77% | inhibition of gal3 (5 µM)-mediated apoptosis of Jurkat cells by 3.5 nM TFD100 [3]: 63% | apoptosis of activated tumor-specific CD8+ cells with patient serum plus 3.5 nM TFD100 (87-93% with patient serum alone) [4]: 66 % apoptosis | inhibition of binding of calcein-labeled PC3 cells to HUVEC monolayer (PC3 pre-treated with 3.5 nM TFD100) [5]: 33% | inhibition of tumor-endothelial cell interactions (HUVEC monolayer pre-incubated with 3.5 nM TFD100) [5]: 45% | apoptosis of activated tumor specific CD8+ T cells on a B16 monolayer with 3.5 nM TFD100 (about 53% without) [6]: 36 % apoptosis | RIA (relative inhibitory activity compared to lactose taken as 1) (fold vs lactose) [7]: 66700 | IC50 [8]: 1.5 nM | IC50 [9]: 0.25 nM | RIA (relative inhibitory activity compared to lactose taken as 1) (fold vs lactose) (gal4 [10]): 8.33e+06 | RIA (relative inhibitory activity compared to lactose taken as 1) (fold vs lactose) [1]: 400000 | koff [11]: 0.0003 s⁻¹ | kon [11]: 3.1e+06 M⁻¹ s⁻¹ | half-life for the complex [12]: 38.5 min | IC50 (gal4 [13]): 1.2 nM | fold activity in inhibiting gal3 binding compared to free TFD [14]: 800000 fold

pre-immune IgG (protein A-Sepharose purified pre-immune rabbit serum) (antibody)
mean fluorescence unit (mfu) [15]: 759 mfu | mean fluorescence unit (mfu) [16]: 95 mfu | mean fluorescence unit (mfu) [17]: 1000 mfu
